Reference: publication PMC7948495, “The flexible N-terminus of BchL autoinhibits activity through interaction with its [4Fe-4S] cluster and released upon ATP binding” (The Journal of Biological Chemistry, 2020)

Target: the molecule itself
Test: crystal structure; nucleotide-free BchL crystallised anaerobically at 15 °C by vapor diffusion; 100 μM dimeric BchL in 100 mM Hepes pH 7.5, 150 mM NaCl, 10% glycerol, 1.7 mM dithionite; well 0.6 M NaCl, 0.1 M MES:NaOH pH 6.5, 20% PEG 4000; 2.6 Å

B1: BchL (L-protein of dark-operative protochlorophyllide oxidoreductase, DPOR) from Rhodobacter sphaeroides (enzyme, UniProt Q9RFD6 1-297, looked up)
chain: MSPKDLTIPTGADGEGSVQVHLDEADKITGAKVFAVYGKGGIGKSTTSSNLSAAFSILGKRVLQIGCDPKHDSTFTLTGSLVPTVIDVLKDVDFHPEELRPEDFVFEGFNGVMCVEAGGPPAGTGCGGYVVGQTVKLLKQHHLLDDTDVVIFDVLGDVVCGGFAAPLQHADQAVVVTANDFDSIYAMNRIIAAVQAKSKNYKVRLAGCVANRSRATDEVDRFCKETNFRRLAHMPDLDAIRRSRLKKKTLFEMDEDQDVLAARAEYIRLAESLWRGLDPIDPHSLPDRDIFELLGFD
notes: BchL, Rhodobacter sphaeroides; coding region PCR-amplified from genomic DNA and cloned into pRSF-Duet 1 or pET-Duet 1; a TEV protease site follows the His tag; Homodimer with one [4Fe-4S] cluster at the dimer interface, ligated by two cysteines from each subunit; also called WT BchL
binding result: binds
